Experimental data reported in patent publication US20230265151A1, “GIP/GLP1 CO-AGONIST COMPOUNDS” (priority 2020, published 2023).
Where a chain is given by its changes, count along the chain named. *1 amine or outer side, *2 acyl side, *3 side chain or, on linkers, in order; H or OH if unused. Where no end group is shown, it is not given here. Side-chain parts run from the residue outwards. [ ]: non-standard residue; d: D form. The star is where a group is joined. αMePhe(2-F) = C[C@](N)(Cc1ccccc1F)C(=O)O; γGlu = O=C(O)[C@H](CCC(=O)[*:2])N[*:1]; C14 diacid = O=C(O)CCCCCCCCCCCCC(=O)*; αMeY = C[C@](N)(Cc1ccc(O)cc1)C(=O)O; αMeF = C[C@](N)(Cc1ccccc1)C(=O)O; αMeL = CC(C)C[C@](C)(N)C(=O)O; Orn = NCCC[C@H](N)C(=O)O; AEEA = NCCOCCOCC(=O)O; Aib = CC(C)(N)C(=O)O

T1: human GIP receptor (human, UniProt P48546 22-466)
T1 sequence (looked up): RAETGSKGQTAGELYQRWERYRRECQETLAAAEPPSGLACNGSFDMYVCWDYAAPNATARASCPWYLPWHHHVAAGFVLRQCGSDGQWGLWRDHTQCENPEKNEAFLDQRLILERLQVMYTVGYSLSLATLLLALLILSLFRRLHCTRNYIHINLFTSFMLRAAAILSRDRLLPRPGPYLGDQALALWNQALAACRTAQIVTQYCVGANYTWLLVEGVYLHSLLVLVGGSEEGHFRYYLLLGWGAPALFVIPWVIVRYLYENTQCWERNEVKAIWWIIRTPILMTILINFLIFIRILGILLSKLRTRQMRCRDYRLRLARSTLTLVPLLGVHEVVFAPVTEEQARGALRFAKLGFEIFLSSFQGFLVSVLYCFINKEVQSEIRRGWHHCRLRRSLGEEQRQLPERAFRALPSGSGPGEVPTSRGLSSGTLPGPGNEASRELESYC

B1: Example 106 (peptide)
peptide: Y[Aib]EGT[αMePhe(2-F)]TSDK([AEEA-AEEA-γGlu-C14 diacid])SI[αMeL]LD[Orn]IAQ[Aib]EFIK([AEEA-AEEA-γGlu-C14 diacid])[αMeY]LIEGGPSSGAPPPS-NH2
B2: Example 107 (peptide)
peptide: Y[Aib]EGT[αMePhe(2-F)]TSDK([AEEA-AEEA-γGlu-C14 diacid])SI[αMeL]LD[Orn]IAQ[Aib]EFI[dE][αMeY]LIK([AEEA-AEEA-γGlu-C14 diacid])GGPSSGAPPPS-NH2
modifications: N-terminus assumed
SMILES: CC[C@H](C)[C@H](NC(=O)[C@H](CCCN)NC(=O)[C@H](CC(=O)O)NC(=O)[C@H](CC(C)C)NC(=O)[C@](C)(CC(C)C)NC(=O)[C@@H](NC(=O)[C@H](CO)NC(=O)[C@H](CCCCNC(=O)COCCOCCNC(=O)COCCOCCNC(=O)CC[C@H](NC(=O)CCCCCCCCCCCCC(=O)O)C(=O)O)NC(=O)[C@H](CC(=O)O)NC(=O)[C@H](CO)NC(=O)[C@@H](NC(=O)[C@](C)(Cc1ccccc1F)NC(=O)[C@@H](NC(=O)CNC(=O)[C@H](CCC(=O)O)NC(=O)C(C)(C)NC(=O)[C@@H](N)Cc1ccc(O)cc1)[C@@H](C)O)[C@@H](C)O)[C@@H](C)CC)C(=O)N[C@@H](C)C(=O)N[C@@H](CCC(N)=O)C(=O)NC(C)(C)C(=O)N[C@@H](CCC(=O)O)C(=O)N[C@@H](Cc1ccccc1)C(=O)N[C@H](C(=O)N[C@H](CCC(=O)O)C(=O)N[C@@](C)(Cc1ccc(O)cc1)C(=O)N[C@@H](CC(C)C)C(=O)N[C@H](C(=O)N[C@@H](CCCCNC(=O)COCCOCCNC(=O)COCCOCCNC(=O)CC[C@H](NC(=O)CCCCCCCCCCCCC(=O)O)C(=O)O)C(=O)NCC(=O)NCC(=O)N1CCC[C@H]1C(=O)N[C@@H](CO)C(=O)N[C@@H](CO)C(=O)NCC(=O)N[C@@H](C)C(=O)N1CCC[C@H]1C(=O)N1CCC[C@H]1C(=O)N1CCC[C@H]1C(=O)N[C@@H](CO)C(N)=O)[C@@H](C)CC)[C@@H](C)CC
B3: Example 5 (peptide)
peptide: YXEGTXTSDXSIXLDXKAQXEFIXXLIEGGKSSGAPPPS
modifications: Aib2, αMeF(2F)6, 4Pal10, αMeL13, Orn16, Aib20, D-Glu24, αMeY25, K17 and K31: K(AEEA2-(γ-Glu)-CO-(CH2)10-CH3), C-terminal NH2
B4: Example 99 (peptide)
peptide: B3 peptide with F22X
modifications: Aib2, αMeF(2F)6, 4Pal10, αMeL13, Orn16, Aib20, 2Nal22, D-Glu24, αMeY25, K17 and K31: K(AEEA2-(γ-Glu)-CO-(CH2)12-CO2H), C-terminal NH2
B5: Example 98 (peptide)
peptide: B3 peptide
modifications: Aib2, αMeF(2F)6, ChA10, αMeL13, Orn16, Aib20, D-Glu24, αMeY25, K17 and K31: K(AEEA2-(γ-Glu)-CO-(CH2)12-CO2H), C-terminal NH2
B6: Example 88 (peptide)
peptide: B3 peptide with F22X
modifications: Aib2, αMeF(2F)6, 4Pal10, αMeL13, Orn16, Aib20, αMeF(2F)22, D-Glu24, αMeY25, K17 and K31: K(AEEA2-(γ-Glu)-CO-(CH2)12-CO2H), C-terminal NH2
B7: Example 86 (peptide)
peptide: B3 peptide with K17Q, E28K
modifications: Aib2, αMeF(2F)6, 4Pal10, αMeL13, Orn16, Aib20, D-Glu24, αMeY25, K28 and K31: K(AEEA2-(γ-Glu)-CO-(CH2)12-CO2H), C-terminal NH2
B8: Example 103 (peptide)
peptide: B3 peptide with E21G
modifications: Aib2, αMeF(2F)6, 4Pal10, αMeL13, Orn16, Aib20, D-Glu24, αMeY25, K17 and K31: K(AEEA2-(γ-Glu)-CO-(CH2)12-CO2H), C-terminal NH2
B9: Example 101 (peptide)
peptide: B3 peptide with X16G
modifications: Aib2, αMeF(2F)6, 4Pal10, αMeL13, Aib20, D-Glu24, αMeY25, K17 and K31: K(AEEA2-(γ-Glu)-CO-(CH2)12-CO2H), C-terminal NH2
B10: Example 95 (peptide)
peptide: B3 peptide
modifications: Aib2, αMeF(2F)6, Ac4c10, αMeL13, Orn16, Aib20, D-Glu24, αMeY25, K17 and K31: K(AEEA2-(γ-Glu)-CO-(CH2)12-CO2H), C-terminal NH2
B11: Example 92 (peptide)
peptide: B3 peptide with X10V, F22X
modifications: Aib2, αMeF(2F)6, αMeL13, Orn16, Aib20, αMeF22, D-Glu24, αMeY25, K17 and K31: K(AEEA2-(γ-Glu)-CO-(CH2)12-CO2H), C-terminal NH2
B12: Example 90 (peptide)
peptide: B3 peptide with X10V
modifications: Aib2, αMeF(2F)6, αMeL13, Orn16, Aib20, D-Glu24, αMeY25, K17 and K31: K(AEEA2-(γ-Glu)-CO-(CH2)12-CO2H), C-terminal NH2
B13: Example 84 (peptide)
peptide: B3 peptide with F22X, X24K, K31P
modifications: Aib2, αMeF(2F)6, 4Pal10, αMeL13, Orn16, Aib20, αMeF22, αMeF25, K17 and K24: K(AEEA2-(γ-Glu)-CO-(CH2)12-CO2H), C-terminal NH2
B14: Example 9 (peptide)
peptide: B3 peptide
modifications: Aib2, αMeF(2F)6, 4Pal10, αMeL13, Orn16, Aib20, D-Glu24, αMeY25, K17 and K31: K(AEEA2-CO-(CH2)12-CO2H), C-terminal NH2
B15: Example 105 (peptide)
peptide: B3 peptide with X10K, K17I, E21K, K31P
modifications: Aib2, αMeF(2F)6, αMeL13, Orn16, Aib20, D-Glu24, αMeY25, K10 and K21: K(AEEA2-(γ-Glu)-CO-(CH2)12-CO2H), C-terminal NH2
B16: Example 96 (peptide)
peptide: B3 peptide
modifications: Aib2, αMeF(2F)6, 4CPhe10, αMeL13, Orn16, Aib20, D-Glu24, αMeY25, K17 and K31: K(AEEA2-(γ-Glu)-CO-(CH2)12-CO2H), C-terminal NH2
B17: Example 87 (peptide)
peptide: B3 peptide
modifications: Aib2, αMeF(2F)6, αMeF(2F)10, αMeL13, Orn16, Aib20, D-Glu24, αMeY25, K17 and K31: K(AEEA2-(γ-Glu)-CO-(CH2)12-CO2H), C-terminal NH2
B18: Example 85 (peptide)
peptide: B3 peptide with F22X, X24K, X25Y, K31P
modifications: Aib2, αMeF(2F)6, 4Pal10, αMeL13, Orn16, Aib20, αMeF22, K17 and K24: K(AEEA2-(γ-Glu)-CO-(CH2)12-CO2H), C-terminal NH2
B19: Example 104 (peptide)
peptide: B3 peptide with X24G
modifications: Aib2, αMeF(2F)6, 4Pal10, αMeL13, Orn16, Aib20, αMeY25, K17 and K31: K(AEEA2-(γ-Glu)-CO-(CH2)12-CO2H), C-terminal NH2
B20: Example 97 (peptide)
peptide: B3 peptide
modifications: Aib2, αMeF(2F)6, ChG10, αMeL13, Orn16, Aib20, D-Glu24, αMeY25, K17 and K31: K(AEEA2-(γ-Glu)-CO-(CH2)12-CO2H), C-terminal NH2
B21: Example 94 (peptide)
peptide: B3 peptide with F22X
modifications: Aib2, αMeF(2F)6, Ac5c10, αMeL13, Orn16, Aib20, αMeF22, D-Glu24, αMeY25, K17 and K31: K(AEEA2-(γ-Glu)-CO-(CH2)12-CO2H), C-terminal NH2
B22: Example 89 (peptide)
peptide: B3 peptide with S11X
modifications: Aib2, αMeF(2F)6, 4Pal10, Aib11, αMeL13, Orn16, Aib20, D-Glu24, αMeY25, K17 and K31: K(AEEA2-(γ-Glu)-CO-(CH2)12-CO2H), C-terminal NH2
B23: Example 93 (peptide)
peptide: Y[Aib]EGT[αMePhe(2-F)]TSDV[Aib]I[αMeL]LD[Orn]K([AEEA-AEEA-γGlu-C14 diacid])AQ[Aib]E[αMeF]I[dE][αMeY]LIEGGK([AEEA-AEEA-γGlu-C14 diacid])SSGAPPPS-NH2

Columns and labels:
Assay in all cases: cell-based or functional assay
human glucagon receptor = human glucagon receptor (human, UniProt P47871 26-477)
human GIP receptor = biological target: T1, human GIP receptor
human GLP-1 receptor = human GLP-1 receptor (human, UniProt P43220 24-463)

Binder	EC50, cAMP (human glucagon receptor) [nM]	EC50, cAMP (human GIP receptor) [nM]	Emax, cAMP (human GIP receptor) [%]	EC50, cAMP (human GLP-1 receptor) [nM]	Emax, cAMP (human GLP-1 receptor) [%]
B1	> 9950	0.0385	98.7	0.296	–
B2	> 9950	0.0473	94.3	1.01	93.4
B3	> 9150	0.00585	–	0.057	–
B4	> 9950	0.0235	–	0.349	–
B5	> 9950	0.0148	–	0.227	–
B6	> 9950	0.00884	85.1	6.08	97.1
B7	> 9950	0.0184	94.2	0.359	–
B8	> 9950	0.0305	92.8	2.1	–
B9	> 9950	0.0297	92.1	2.94	–
B10	> 9950	0.0748	–	0.181	–
B11	> 9950	0.0251	–	0.942	–
B12	> 9950	0.0436	93	0.221	96.2
B13	> 9950	0.0315	98.5	5.27	94
B14	> 9950	0.0102	–	0.421	–
B15	> 9950	0.0366	–	0.52	–
B16	> 9950	0.0484	–	6.81	–
B17	> 9950	0.029	84.7	1.34	–
B18	> 9950	0.0312	91.7	7.69	95.3
B19	> 9950	0.0361	94.9	0.417	–
B20	> 9950	0.0276	–	0.683	–
B21	> 9950	0.0132	–	2.1	97.4
B22	> 9950	0.0301	88.9	1.03	–
B23	> 9950	0.0448	99.4	0.575	–
